Test system: Streptococcus mutans
Experiment: activity of full length lactoferrin variants expressed in insect cells against S. mutans
Assay type: cell-based
Conditions: Lf variant expressed in an insect vector
Source text: Caries is the single most common chronic childhood disease, five times more common than asthma. Over 70% of children […] have cavities. Over 108 million Americans lack dental health insurance so that treatment of this infection is lacking. S. mutans is considered one of the microbes most associated with dental decay.
Lactoferrin (Lf) is a multifunctional protein that is found in mammary secretion, tears and saliva and in the gastrointestinal tract. Its main function is to sequester iron from its surroundings to prevent oral microbes from attaining iron, a mineral necessary for survival. In addition, in its N-terminus, Lf has a region that has antimicrobial properties. This region is called the defensin region and it has been shown since 1980's that Lf can kill many types of bacteria including oral bacteria. It was also shown that within that N-terminus region, from amino acid position 11 to 31, at least two polymorphic forms exist. For the most part variation in this defensin region at amino acid position 29 can either contain arginine or lysine. […] Further we then determined that pure lactoferrin would have limited usefulness in the oral cavity unless it was linked to something that would allow it to bind to the tooth surface. […]

B1: arginine variant: more common Lf variant with arginine at position 29, expressed in an insect vector (protein, UniProt P02788 20-710, looked up)
Lactotransferrin: GRRRSVQWCAVSQPEATKCFQWQRNMRKVRGPPVSCIKRDSPIQCIQAIAENRADAVTLDGGFIYEAGLAPYKLRPVAAEVYGTERQPRTHYYAVAVVKKGGSFQLNELQGLKSCHTGLRRTAGWNVPIGTLRPFLNWTGPPEPIEAAVARFFSASCVPGADKGQFPNLCRLCAGTGENKCAFSSQEPYFSYSGAFKCLRDGAGDVAFIRESTVFEDLSDEAERDEYELLCPDNTRKPVDKFKDCHLARVPSHAVVARSVNGKEDAIWNLLRQAQEKFGKDKSPKFQLFGSPSGQKDLLFKDSAIGFSRVPPRIDSGLYLGSGYFTAIQNLRKSEEEVAARRARVVWCAVGEQELRKCNQWSGLSEGSVTCSSASTTEDCIALVLKGEADAMSLDGGYVYTAGKCGLVPVLAENYKSQQSSDPDPNCVDRPVEGYLAVAVVRRSDTSLTWNSVKGKKSCHTAVDRTAGWNIPMGLLFNQTGSCKFDEYFSQSCAPGSDPRSNLCALCIGDEQGENKCVPNSNERYYGYTGAFRCLAENAGDVAFVKDVTVLQNTDGNNNEAWAKDLKLADFALLCLDGKRKPVTEARSCHLAMAPNHAVVSRMDKVERLKQVLLHQQAKFGRNGSDCPDKFCLFQSETKNLLFNDNTECLARLHGKTTYEKYLGPQYVAGITNLKKCSTSPLLEACEFLRK
For B1, the “killing / survival of S. mutans” value was “little to no effect”.
